Values quoted from earlier work, collected in publication PMC2880639.

Molecular target: His62 (UniProt position 62, VESEAHPGSVQ)
Test: kinetics
Details: dissociated species undergoing association

In the case of “R67 dihydrofolate reductase (type II DHFR) (Escherichia coli (plasmid R67))”, the pKa is listed as 6.6.
